The results in this text go back to US20080248064A1.

Experiment [1] deals with recombinant DEN-2 virus E-glycoprotein antigen (wild type, from pCB8D2-2J-2-9-1) (dengue virus serotype 2 (carboxy-terminal 20% from JE virus)).
Experiment [2] shares this target. Put plainly: IFA, wild-type plasmid transfected cells.

Read-outs that look alike come from different tables or passages of the source.

For the substance mAb 3H5 (antibody), the figures for the mAb reactivity (end point) in experiment [1] and in experiment [2] were greater than 6 and greater than 4.4, respectively.
For the substance mAb 4E5 (antibody), the mAb reactivity (end point) in experiment [1] was greater than 2.9; in experiment [2], 2.6.
Consider mAb 4G2 (antibody), for which the mAb reactivity (end point) was greater than 6 in experiment [1] and 3.8 in experiment [2].
